Experimental data from patent JP2005515752A (dated 2005).

T1: 可溶性ヒトRANKL蛋白質 (human, UniProt O14788 140-317, limits assumed, biotinylated with NHS-biotin at 20:1 molar ratio in the competition ELISA (sites not given); not biotinylated in the cell assays)
T1 sequence (looked up): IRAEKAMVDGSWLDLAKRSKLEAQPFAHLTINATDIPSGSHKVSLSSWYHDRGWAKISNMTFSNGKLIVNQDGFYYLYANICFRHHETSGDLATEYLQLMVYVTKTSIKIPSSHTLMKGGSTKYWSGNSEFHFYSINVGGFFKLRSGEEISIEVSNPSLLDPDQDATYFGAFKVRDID


Key:
可溶性ヒトRANKL蛋白質 [1] = target: T1, 可溶性ヒトRANKL蛋白質; assay: cell-based or functional assay
可溶性ヒトRANKL蛋白質 [2] = target: T1, 可溶性ヒトRANKL蛋白質; assay: competition ELISA: inhibition of biotinylated shRANKL binding to coated RANK-Fc
可溶性ヒトRANKL蛋白質 [3] = target: T1, 可溶性ヒトRANKL蛋白質; assay: competition ELISA: soluble competitor against biotinylated shRANKL binding to coated RANK-Fc
可溶性ヒトRANKL蛋白質 [4] = target: T1, 可溶性ヒトRANKL蛋白質; assay: not described in an example; paragraph 39 names optical biosensor analysis for the Kd

IC50, osteoclast formation from mouse bone marrow cells stimulated by human sRANKL (TRAP-positive cells per well) (可溶性ヒトRANKL蛋白質 [1]) | concentration of complete inhibition, osteoclast formation from mouse bone marrow cells stimulated by human sRANKL (可溶性ヒトRANKL蛋白質 [1]) | IC50 (可溶性ヒトRANKL蛋白質 [2]) | IC50, osteoclast formation from human monocytes with human soluble RANKL and M-CSF (multinucleated cells) (可溶性ヒトRANKL蛋白質 [1]) | IC50 (可溶性ヒトRANKL蛋白質 [3]) | Kd (可溶性ヒトRANKL蛋白質 [4]) | Binder
~0.2 µg/mL | 1 µg/mL | ~0.5 nM |  |  |  | OPG−Fc (Fc fusion, UniProt O00300 22-201, looked up, also called osteoprotegerin-Fc; not shown: Fc part; not described) ETFPPKYLHYDEETSHQLLCDKCPPGTYLKQHCTAKWKTVCAPCPDHYYTDSWHTSDECLYCSPVCKELQYVKQECNRTHNRVCECKEGRYLEIEFCLKHRSCPPGFGVVQAGTPERNTVCKRCPDGFFSNETSSKAPCRKHTNCSVFGLLLTQKGNATHDNICSGNSESTQKCGIDVTL
 | 10 µg/mL |  | ~0.5 µg/mL | ~6 nM |  | ヒトRANK−Fc融合蛋白質 (Fc fusion, human, UniProt Q9Y6Q6 30-212, looked up, Construct limits and Fc not described; also called RANK−Fc蛋白質; not shown: Fc part) IAPPCTSEKHYEHLGRCCNKCEPGKYMSSKCTTTSDSVCLPCGPDEYLDSWNEEDKCLLHKVCDTGKALVAVVAGNSTTPRRCACTAGYHWSQDCECCRRNTECAPGLGAQHPLQLNKDTVCKPCLAGYFSDAFSSTDKCRPWTNCTFLGKRVEHHGTEKSDAVCSSSLPARKPPNEPHVYLP
~0.2 µg/mL | 1 µg/mL | ~2 nM | ~4 µg/mL |  | ~0.1 nM | マウスモノクローナル抗体14F3 (antibody, V domains shown, Murine IgG2a/kappa purified from hybridoma; also called RANKL mAb 14F3; mAb14F3) VH: EVQLVESGGDLVKPGGSLKLSCAASGFTFSRYGMSWVRQTPDKRLEWVATISSGGSYTYYPDSVKGRFTISRDNAKNTLYLQMSSLKSEDTAMYYCARLDGYNYRWYFDVWGTGTTVTVSS VL: DIVMTQSHKFMSTSVGDRVSITCKASQDVSSAVAWYQQKPGQSPKLLIYSASYRYTGVPDRFTGSGSGTDFTFTISSVQAEDLAVYYCQQHYSSPRTFGGGTNLEIKR
